The values below come from the supplement of paper PMC5998384.

Data set [1] deals with HeLa Kyoto. Description: thermal stability score vs G1/S (z-score of summed log2 fold changes over temperatures); higher = more thermally stable than in G1/S.
In data set [2] the test system is HeLa Kyoto. Description: melting temperature (median over replicates), in situ; higher = more thermally stable.
In data set [3] the test system is HeLa Kyoto. The data set is described as follows: solubility change mitosis vs G1/S (difference of NP-40 vs SDS log2 ratios) (log2 ratio difference); higher = more soluble in mitosis.
Data set [4] deals with HeLa Kyoto. The data set is described as follows: solubility in G1/S (NP-40 vs SDS abundance) (log2 ratio); higher = more soluble. As to conditions: cell cycle stage: G1/S.
Setting [5] is: cell cycle stage: early G1 (4.5 h after nocodazole release).
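For melting temperature (median over replicates), in situ in this document: HeLa Kyoto cells synchronized by double thymidine or nocodazole block, proteins quantified by TMT10plex mass spectrometry, three independent biological replicates.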
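For solubility change mitosis vs G1/S (difference of NP-40 vs SDS log2 ratios) in this document: synchronized HeLa Kyoto cells (double thymidine block for G1/S, nocodazole release for mitosis), protein amounts in NP-40 versus SDS lysates quantified by mass spectrometry, three biological replicates.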
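For solubility in G1/S (NP-40 vs SDS abundance) in this document: HeLa Kyoto cells arrested at G1/S by double thymidine block, proteins quantified by TMT10plex mass spectrometry in mild NP-40 versus SDS extracts, three biological replicates.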
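For thermal stability score vs G1/S (z-score of summed log2 fold changes over temperatures) in this document: synchronized HeLa Kyoto cells, proteins quantified by TMT10plex mass spectrometry, three biological replicates, mitosis taken 0.5 h after nocodazole release, G1/S directly after double thymidine block.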

For “MTRHGKNCTAGAVYTYHEKKKDTAASGYGTQNIRLSRDAVKDFDCCCLSLQPCHDPVVTPDGYLYEREAILEYILHQKKEIARQMKAYEKQRGTRREEQKELQRAASQDHVRGFLEKESAIVSRPLNPFTAKALSGTSPDDVQPGPSVGPPSKDKDKVLPSFWIPSLTPEAKATKLEKPSRTVTCPMSGKPLRMSDLTPVHFTPLDSSVDRVGLITRSERYVCAVTRDSLSNATPCAVLRPSGAVVTLECVEKLIRKDMVDPVTGDKLTDRDIIVLQRGGTGFAGSGVKLQAEKSRPVMQA [NOSIP]”, the thermal stability score with HeLa Kyoto [1] (setting [5]) was 4.16; with HeLa Kyoto [1] (cell cycle stage: mitosis), 6.51. For the same sequence, the melting temperature with HeLa Kyoto [2] (cell cycle stage: G1/S) stood at 45.8 °C; in the data set with HeLa Kyoto [2] (cell cycle stage: mitosis) it was 47.8 °C. Besides, the “solubility change mitosis (log2)” value in the data set on HeLa Kyoto [3] was -0.163. For the same sequence, the “solubility in G1/S (log2)” value in the data set with HeLa Kyoto [4] was 0.262.
For the sequence “MEATGTWALLLALALLLLLTLALSGTRARGHLPPGPTPLPLLGNLLQLRPGALYSGLMRLSKKYGPVFTIYLGPWRPVVVLVGQEAVREALGGQAEEFSGRGTVAMLEGTFDGHGVFFSNGERWRQLRKFTMLALRDLGMGKREGEELIQAEARCLVETFQGTEGRPFDPSLLLAQATSNVVCSLLFGLRFSYEDKEFQAVVRAAGGTLLGVSSQGGQTYEMFSWFLRPLPGPHKQLLHHVSTLAAFTVRQVQQHQGNLDASGPARDLVDAFLLKMAQEEQNPGTEFTNKNMLMTVIYLLFAGTMTVSTTVGYTLLLLMKYPHVQKWVREELNRELGAGQAPSLGDRTRLPYTDAVLHEAQRLLALVPMGIPRTLMRTTRFRGYTLPQGTEVFPLLGSILHDPNIFKHPEEFNPDRFLDADGRFRKHEAFLPFSLGKRVCLGEGLAKAELFLFFTTILQAFSLESPCPPDTLSLKPTVSGLFNIPPAFQLQVRPTDLHSTTQTR [CYP2S1]”, the thermal stability score with HeLa Kyoto [1] (setting [5]) is -1.27; in the data set with HeLa Kyoto [1] (cell cycle stage: mitosis) it was 0.83. In addition, the melting temperature with HeLa Kyoto [2] (cell cycle stage: G1/S) and in the data set on HeLa Kyoto [2] (cell cycle stage: mitosis) was 57.4 °C throughout. The “solubility change mitosis (log2)” value in the data set with HeLa Kyoto [3] was -0.159. The “solubility in G1/S (log2)” value in the data set on HeLa Kyoto [4] was -0.0959.
Regarding “MEVTGDAGVPESGEIRTLKPCLLRRNYSREQHGVAASCLEDLRSKACDILAIDKSLTPVTLVLAEDGTIVDDDDYFLCLPSNTKFVALASNEKWAYNNSDGGTAWISQESFDVDETDSGAGLKWKNVARQLKEDLSSIILLSEEDLQMLVDAPCSDLAQELRQSCATVQRLQHTLQQVLDQREEVRQSKQLLQLYLQALEKEGSLLSKQEESKAAFGEEVDAVDTGISRETSSDVALASHILTALREKQAPELSLSSQDLELVTKEDPKALAVALNWDIKKTETVQEACERELALRLQQTQSLHSLRSISASKASPPGDLQNPKRARQDPT [DFFA]”, the thermal stability score in the data set with HeLa Kyoto [1] (setting [5]) is -1.44; in the data set on HeLa Kyoto [1] (cell cycle stage: mitosis) it was -0.858. For the same sequence, the results for the melting temperature in the data set on HeLa Kyoto [2] (cell cycle stage: G1/S) and in the data set with HeLa Kyoto [2] (cell cycle stage: mitosis) were 54.2 °C and 54.5 °C, respectively. Also, in the data set on HeLa Kyoto [3], the “solubility change mitosis (log2)” value turned out to be 0.0192. Also, the “solubility in G1/S (log2)” value in the data set with HeLa Kyoto [4] was 0.392.
“MAENTEGDLNSNLLHAPYHTGDPQLDTAIGQWLRWDKNPKTKEQIENLLRNGMNKELRDRLCCRMTFGTAGLRSAMGAGFCYINDLTVIQSTQGMYKYLERCFSDFKQRGFVVGYDTRGQVTSSCSSQRLAKLTAAVLLAKDVPVYLFSRYVPTPFVPYAVQKLKAVAGVMITASHNRKEDNGYKVYWETGAQITSPHDKEILKCIEECVEPWNGSWNDNLVDTSPLKRDPLQDICRRYMEDLKKICFYRELNSKTTLKFVHTSFHGVGHDYVQLAFKVFGFKPPIPVPEQKDPDPDFSTVKCPNPEEGESVLELSLRLAEKENARVVLATDPDADRLAAAELQENGCWKVFTGNELAALFGWWMFDCWKKNKSRNADVKNVYMLATTVSSKILKAIALKEGFHFEETLPGFKWIGSRIIDLLENGKEVLFAFEESIGFLCGTSVLDKDGVSAAVVVAEMASYLETMNITLKQQLVKVYEKYGYHISKTSYFLCYEPPTIKSIFERLRNFDSPKEYPKFCGTFAILHVRDVTTGYDSSQPNKKSVLPVSKNSQMITFTFQNGCVATLRTSGTEPKIKYYAEMCASPDQSDTALLEEELKKLIDALIENFLQPSKNGLIWRSV [PGM2L1]”: the thermal stability score is 0.325 with HeLa Kyoto [1] (setting [5]) and -0.133 in the data set on HeLa Kyoto [1] (cell cycle stage: mitosis). Further, the values for the melting temperature in the data set with HeLa Kyoto [2] (cell cycle stage: G1/S) and with HeLa Kyoto [2] (cell cycle stage: mitosis) were 53.4 °C and 54.2 °C, respectively. For the same sequence, the “solubility change mitosis (log2)” value in the data set on HeLa Kyoto [3] was -0.173. In the data set on HeLa Kyoto [4], the “solubility in G1/S (log2)” value came to 0.0482.
Turning to “MPGVKLTTQAYCKMVLHGAKYPHCAVNGLLVAEKQKPRKEHLPLGGPGAHHTLFVDCIPLFHGTLALAPMLEVALTLIDSWCKDHSYVIAGYYQANERVKDASPNQVAEKVASRIAEGFSDTALIMVDNTKFTMDCVAPTIHVYEHHENRWRCRDPHHDYCEDWPEAQRISASLLDSRSYETLVDFDNHLDDIRNDWTNPEINKAVLHLC [EMC8]”, the thermal stability score in the data set on HeLa Kyoto [1] (setting [5]) was -1.83; in the data set on HeLa Kyoto [1] (cell cycle stage: mitosis) it was -2.67. The melting temperature amounted to 53.1 °C with HeLa Kyoto [2] (cell cycle stage: G1/S) and 53.3 °C in the data set on HeLa Kyoto [2] (cell cycle stage: mitosis). Also, the “solubility change mitosis (log2)” value in the data set with HeLa Kyoto [3] is -0.272. For the same sequence, the “solubility in G1/S (log2)” value in the data set with HeLa Kyoto [4] was 0.269.
As to “MPLGLGRRKKAPPLVENEEAEPGRGGLGVGEPGPLGGGGSGGPQMGLPPPPPALRPRLVFHTQLAHGSPTGRIEGFTNVKELYGKIAEAFRLPTAEVMFCTLNTHKVDMDKLLGGQIGLEDFIFAHVKGQRKEVEVFKSEDALGLTITDNGAGYAFIKRIKEGSVIDHIHLISVGDMIEAINGQSLLGCRHYEVARLLKELPRGRTFTLKLTEPRKAFDMISQRSAGGRPGSGPQLGTGRGTLRLRSRGPATVEDLPSAFEEKAIEKVDDLLESYMGIRDTELAATMVELGKDKRNPDELAEALDERLGDFAFPDEFVFDVWGAIGDAKVGRY [GIPC1]”, the results for the thermal stability score with HeLa Kyoto [1] (setting [5]) and in the data set with HeLa Kyoto [1] (cell cycle stage: mitosis) were -0.363 and 1.49, respectively. The results for the melting temperature in the data set with HeLa Kyoto [2] (cell cycle stage: G1/S) and with HeLa Kyoto [2] (cell cycle stage: mitosis) were 49.5 °C and 48.7 °C, respectively. Also, in the data set with HeLa Kyoto [3], the “solubility change mitosis (log2)” value was -0.156. Besides, the “solubility in G1/S (log2)” value in the data set with HeLa Kyoto [4] turned out to be 0.314.
